Reference: the supplement of paper PMC10724198
± gives the standard deviation of the averaged measurements.

system: Saccharomyces cerevisiae; assay: protein stability index of tFT-peptide fusion (C-terminal peptide) (PSI (0-1 scale)); higher = more stable (slower turnover); details: genetic background: wild type; temperature: 30 C
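Also: PSI is a weighted mean of sequencing reads over stability bins, variants kept only with over 10 reads, mCherry proximal and sfGFP distal, peptide attached via GGGS linker.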

Sequence	protein stability index
SRSRCGSRAVAF	0.694 ± 0.029
AENHCIASRIGH	0.659 ± 0.019
PLLFGGGGVSVL	0.70247 ± 0.00036
WLGSRGNGGWAE	0.696 ± 0.024
SRRVAPEPSIPP	0.683 ± 0.018
FGFSAVCFGNLC	0.6729 ± 0.0024
GLFSGRCLCGGG	0.688 ± 0.025
FNTCCQNTWKVK	0.677 ± 0.15
FQFSFLRFGGCA	0.651 ± 0.048
VIQVRDLRLFSR	0.734 ± 0.028
VMVMELHGYPVV	0.655 ± 0.044
RRRTTTNFKVGH	0.672 ± 0.014
SGAGGGVWWGGV	0.73 ± 0.0092
ENVINGLITIKK	0.742 ± 0.039
YRVSWSFLGCFQ	0.62 ± 0.071
FSFCRLPDSPSS	0.698 ± 0.026
LSPASPGPFLSC	0.72 ± 0.022
PRGLFLTRLRPC	0.64 ± 0.058
ARNNVRKTEQQC	0.717 ± 0.11
LFAPPACLPSPA	0.64 ± 0.014
IYCWGVSFGWLR	0.68 ± 0.021
GFVPGGGGRSSV	0.681 ± 0.0092
GGFLMVSPMDWA	0.703 ± 0.026
FSVWCDLFGFFC	0.674 ± 0.075
LGMEPPWIYSCQ	0.6851 ± 0.0019

Sequence	protein stability index
SNPFPTILSSSS	0.736 ± 0.037
LLPFLPPPPCPP	0.72 ± 0.022
CFKPLRLEPGCC	0.665 ± 0.094
TKWYDSSKKTNK	0.688 ± 0.075
REWGWGALVMWG	0.638 ± 0.042
VVLWLASGVGGG	0.75 ± 0.061
DAGGGKLFGNSK	0.663 ± 0.019
LSTPPLPRPYPP	0.654 ± 0.038
PPPTPPPAPSHR	0.677 ± 0.1
RRPSRLLGPERI	0.717 ± 0.025
CKVRSYDDFVLV	0.6231 ± 0.002
SKGISARLAREG	0.653 ± 0.038
GGVGGGVEPCFV	0.66 ± 0.028
KKRREKKYQHKI	0.713 ± 0.039
PPPSRSLPPRPQ	0.727 ± 0.027
PVGGAGCVRGGV	0.749 ± 0.19
SIENEYAMERKK	0.707 ± 0.056
LPRPPPFSPPPP	0.651 ± 0.11
RGGGRRAWVWGG	0.675 ± 0.036
CPLEYSEVVLVD	0.6268 ± 0.0022
ARCSPVPWGGGE	0.647 ± 0.033
NNLSPLPGPSLI	0.713 ± 0.018
VVRWFGGGCVRG	0.682 ± 0.033
SCQSPSSQEYST	0.751 ± 0.056
RDLLPPLYLPSH	0.711 ± 0.039

Sequence	protein stability index
LIHGRFWVIRVD	0.616 ± 0.0092
AGDTCRLRIHVD	0.728 ± 0.021
SCSFPPSPFLCG	0.677 ± 0.03
RAACALSRRGLM	0.926 ± 0.1
RYSPPPPPIPSP	0.715 ± 0.0022
AGLEPGTAALVD	0.641 ± 0.094
SSPHQVLTTRAP	0.705 ± 0.13
VVDGGEHVCYRI	0.654 ± 0.082
GKLQFAEYYNGI	0.66 ± 0.0081
KYEKILLTVAPE	0.672 ± 0.019
GVVIGWAGYKGT	0.671 ± 0.043
QRPFKCMIKFNK	0.67 ± 0.0078
PPIVPFGSPVVL	0.728 ± 0.026
PPPLASLPSFLR	0.739 ± 0.011
SRLFSFLYDVTA	0.665 ± 0.036
GGRRTEIYTGPA	0.703 ± 0.019
GQSVYRRWGCLK	0.68 ± 0.01
PSPLRLPPPSVP	0.712 ± 0.013
VHSSWRVAACGK	0.698 ± 0.031
GCFLRHAPALRF	0.735 ± 0.063
GGAGGHCSHEWS	0.728 ± 0.039
APVEVYRHAEAS	0.67 ± 0.035
GGGGSRRGVGDR	0.687 ± 0.013
VGFPLVSSPLRL	0.566 ± 0.059
LSAPLPPLSAPP	0.667 ± 0.0099

Sequence	protein stability index
VSCPGWVVHVIV	0.48 ± 0.079
PPLVPRTSPSPS	0.666 ± 0.012
RRQWVLEQEGGT	0.732 ± 0.056
HLPPPPSPSPPP	0.686 ± 0.012
SLWTDALFLCLT	0.727 ± 0.19
PPHAPTRTTSGP	0.6388 ± 0.0013
GPRDPSCLLPPL	0.653 ± 0.013
TDLPTSMHETRN	0.695 ± 0.028
RFGLRVLGGACR	0.591 ± 0.071
VLGRLRGGRDRV	0.723 ± 0.023
LPRASQFLLPVP	0.651 ± 0.065
PAPDATQRVRSQ	0.645 ± 0.0089
GGGRGNRGEKMT	0.67 ± 0.012
APRPSLTPLSTP	0.653 ± 0.09
PSLPPLPRSPPP	0.714 ± 0.04
FLDTSSYFMFAS	0.7123 ± 0.007
TPPLARPSPTAL	0.534 ± 0.12
GRANLAPVPPPR	0.685 ± 0.013
KNSWVLPPSPRS	0.68 ± 0.04
PQYLSGFDIHNG	0.728 ± 0.052
GGARESGRVEQV	0.676 ± 0.011
SAPPLFPCPSPA	0.68 ± 0.03
CRSGFEPSPHLG	0.657 ± 0.029
GRADWERGMGLV	0.664 ± 0.021
LRAPPPPAQPFV	0.694 ± 0.012

Sequence	protein stability index
SPVPRIRPPPLL	0.699 ± 0.053
LRLLSFFITSFL	0.64 ± 0.13
RICPEVSSVLIR	0.682 ± 0.035
STPSPQPYIAPT	0.735 ± 0.06
PLLALANSPLYR	0.6708 ± 0.005
PLPRPPPPPPPS	0.7 ± 0.048
AGLGLGRVNVMP	0.743 ± 0.03
LAVVSTRCRLEL	0.694 ± 0.062
KKRKEIKNREEK	0.739 ± 0.035
VALAPLRDVPSG	0.681 ± 0.043
FKKTSRHTINRK	0.757 ± 0.023
ARPPSPRPPPAP	0.675 ± 0.062
NGYASLGGEPKR	0.7576 ± 0.0041
LFTSCPPDVRSL	0.667 ± 0.012
PPPPLAPSPPPS	0.6542 ± 0.0025
TQGPTAPADPCS	0.67049 ± 0.00033
GYGWGVGGGFGR	0.691 ± 0.019
RISGDVNCLSPR	0.718 ± 0.066
VVCSSGFVSDPG	0.5582 ± 0.0049
FKFCLRSESSSE	0.66 ± 0.085
FGGSFEGRGRYY	0.737 ± 0.018
GWDSGHLVVMEI	0.715 ± 0.033
SQCNRGSWRSPS	0.645 ± 0.0073
PPAAPPPPPLPP	0.735 ± 0.039
VSQKQALVCPRI	0.705 ± 0.085

Sequence	protein stability index
RPPHRRRDKKVS	0.701 ± 0.031
PPADKRILQQIR	0.692 ± 0.039
EELGRGLESLGL	0.699 ± 0.076
PRSMLIFPSFPF	0.825 ± 0.042
PTTAPPPRSAGA	0.764 ± 0.051
SSPQASILIRDF	0.778 ± 0.1
FCCRLSGFSILG	0.663 ± 0.033
RVWVGGPRESGQ	0.72118 ± 0.00022
LGVFVAFGGFGV	0.605 ± 0.048
SPLPHRLFPFWS	0.79 ± 0.015
DHVSVFSFVCFL	0.633 ± 0.015
TPFLRGTDKTTP	0.662 ± 0.068
PSPPPVRPRHHH	0.597 ± 0.069
CITLLDILFRPS	0.684 ± 0.019
PTGSGLTLNRVL	0.7187 ± 0.0062
PHPPPLPPLPSP	0.721 ± 0.053
FFAPPSSPSFSR	0.822 ± 0.063
GTVRGVVRGRGG	0.664 ± 0.012
GNLVKTLERDKP	0.736 ± 0.034
PWSFSPLPFVLL	0.673 ± 0.037
GFSSVILMHMPC	0.7534 ± 0.0048
